Source: paper PMC6861513, “Insight into the dimer dissociation process of the Chromobacterium violaceum (S)-selective amine transaminase” (Scientific Reports, 2019)

Biological target: the molecule itself
Experiment: crystal structure; PMP·Cv-ATA; holo-Cv-ATA crystals grown by sitting drop in 100 mM HEPES pH 7.5, 350 mM NaCl, 22.5% PEG 4000, 0.1 mM PLP, cryoprotected with 20 mM 1-(S)-phenylethylamine; space group P1; 1.67 Å

B1: Chromobacterium violaceum (S)-selective amine transaminase, wild type (enzyme)
chain: MQKQRTTSQWRELDAAHHLHPFTDTASLNQAGARVMTRGEGVYLWDSEGNKIIDGMAGLWCVNVGYGRKDFAEAARRQMEELPFYNTFFKTTHPAVVELSSLLAEVTPAGFDRVFYTNSGSESVDTMIRMVRRYWDVQGKPEKKTLIGRWNGYHGSTIGGASLGGMKYMHEQGDLPIPGMAHIEQPWWYKHGKDMTPDEFGVVAARWLEEKILEIGADKVAAFVGEPIQGAGGVIVPPATYWPEIERICRKYDVLLVADEVICGFGRTGEWFGHQHFGFQPDLFTAAKGLSSGYLPIGAVFVGKRVAEGLIAGGDFNHGFTYSGHPVCAAVAHANVAALRDEGIVQRVKDDIGPYMQKRWRETFSRFEHVDDVRGVGMVQAFTLVKNKAKRELFPDFGEIGTLCRDIFFRNNLIMRACGDHIVSAPPLVMTRAEVDEMLAVAERCLEEFEQTLKARGLA
notes: omega-transaminase / (S)-selective amine transaminase of Chromobacterium violaceum, GenBank WP_011135573, in pET28a(+); No tag cleavage is described; also called Cv-ATA; Cv-TA; source: E. coli BL21(DE3), purified (HisTrap FF crude, gel filtration on Superdex 200)
Question: Does B1 bind?
Answer: binds
